{
  "source": "patent US20260176659A1",
  "about": "“IMPROVED METHOD FOR THE PRODUCTION OF NATURAL VANILLIN” (BASE SE, priority 2022, published 2026)",
  "assay": "Biotransformation of coniferyl alcohol to vanillin catalysed by IECO (5 mM)",
  "assay_type": "biochemical",
  "conditions": "5 mM 2a; for Consumption of 2a / Conversion of 2a to 3a (%) / Conversion of 2a to 5a (%) / Reaction composition at 24 hours (%) 2a / Reaction composition at 24 hours (%) 3a / Reaction composition at 24 hours (%) 5a: pH 9.0",
  "experimental": "180 mg of coniferyl alcohol were weighted and dissolved in 10 mL ethanol and stored at −20° C. (stock 100 mM). The reaction mixtures (0.5 mL) were set up in 1.5 mL glass vials as follows: […] (50 mM, pH 9.0) together with sodium ascorbate (1 mM), FeSO4 (1 mM) and bovine liver catalase (Sigma C40, 0-10 mg/mL). The reaction was initiated by the addition of coniferyl alcohol stock (0.025 mL, final concentration 5 mM), then it was incubated for 24 hours at 30° C. and 120 rpm (rotary shaker). Note that the reaction contained 5% v/v ethanol deriving from the substrate stock. To improve the oxygenation, the vials were placed horizontally. At certain time points, reaction samples were taken and quenched with methanol (2 vol. equivalents). The mixture was centrifuged for 5-10 mins at 20238 g. Then supernatant was finally transferred in a HPLC vial for analysis.",
  "key": {"[1]": {"conditions": "IECO CFE Fresh 1 mg/mL, 24 h, non-optimised"}, "[2]": {"conditions": "IECO CFE Fresh 2 mg/mL, 24 h, non-optimised"}, "[3]": {"conditions": "IECO CFE Stored at −20° 2 mg/mL, 24 h, non-optimised"}, "[4]": {"conditions": "IECO CFE Stored at −20° C. 3 mg/mL, 24 h, non-optimised"}, "[5]": {"conditions": "IECO fresh CFE 1 mg/mL, catalase 0 mg/mL"}, "[6]": {"conditions": "IECO fresh CFE 1 mg/mL, catalase 2 mg/mL"}, "[7]": {"conditions": "IECO fresh CFE 1 mg/mL, catalase 10 mg/mL"}, "[8]": {"conditions": "IECO fresh CFE 2 mg/mL, catalase 0 mg/mL"}, "[9]": {"conditions": "IECO fresh CFE 2 mg/mL, catalase 2 mg/mL"}, "[10]": {"conditions": "IECO fresh CFE 2 mg/mL, catalase 10 mg/mL"}, "[11]": {"conditions": "IECO fresh CFE 4 mg/mL, catalase 0 mg/mL"}, "[12]": {"conditions": "IECO fresh CFE 4 mg/mL, catalase 2 mg/mL"}, "[13]": {"conditions": "IECO fresh CFE 4 mg/mL, catalase 10 mg/mL"}},
  "data": [
    {"molecule": "IECO: isoeugenol cleavage oxygenase from Pseudomonas nitroreducens (GenBank: ACP17973), SEQ ID NO: 24 (protein, listed as Pseudomonas nitroreducens) MARLNRNDPQLVGTLLPTRIEADLFDLEVDGEIPKSINGTFYRNTPEPQVTPQKFHTFIDGDGMASAFHFEDGHVDFISRWVKTARFTAERLARKSLFGMYRNPYTDDTSVKGLDRTVANTSIISHHGKVLAVKEDGLPYELDPRTLETRGRFDYDGQVTSQTHTAHPKYDPETGDLLFFGSAAKGEATPDMAYYIVDKHGKVTHETWFEQPYGAFMHDFAITRNWSIFPIMPATNSLSRLKAKQPIYMWEPELGSYIGVLPRRGQGSQIRWLKAPALWVFHVVNAWEVGTKIYIDLMESEILPFPFPNSQNQPFAPEKAVPRLTRWEIDLDSSSDEIKRTRLHDFFAEMPIMDFRFALQCNRYGFMGVDDPRKPLAHQQAEKIFAYNSLGIWDNHRGDYDLWYSGEASAAQEPAFVPRSPTAAEGDGYLLTVVGRLDENRSDLVILDTQDIQSGPVATIKLPFRLRAALHGCWVPRP", "values": [
      {"measurement": "vanillin afforded", "setting": "IECO 4 mg CFE/mL in the presence of catalase, 24 h", "value": "3.6 ± 0.6", "unit": "mM"},
      {"measurement": "Consumption of 2a", "setting": "[1]", "value": 24, "unit": "%"},
      {"measurement": "Conversion of 2a to 3a (%)", "setting": "[1]", "value": 9, "unit": "%"},
      {"measurement": "Consumption of 2a", "setting": "[2]", "value": 45, "unit": "%"},
      {"measurement": "Conversion of 2a to 3a (%)", "setting": "[2]", "value": 17, "unit": "%"},
      {"measurement": "Consumption of 2a", "setting": "[3]", "value": 12, "unit": "%"},
      {"measurement": "Conversion of 2a to 3a (%)", "setting": "[3]", "value": 4, "unit": "%"},
      {"measurement": "Conversion of 2a to 5a (%)", "setting": "[3]", "value": 1, "unit": "%"},
      {"measurement": "Consumption of 2a", "setting": "[4]", "value": 18, "unit": "%"},
      {"measurement": "Conversion of 2a to 3a (%)", "setting": "[4]", "value": 5, "unit": "%"},
      {"measurement": "Conversion of 2a to 5a (%)", "setting": "[4]", "value": 13, "unit": "%"},
      {"measurement": "Reaction composition at 24 hours (%) 2a", "setting": "[5]", "value": "46 ± 3", "unit": "%"},
      {"measurement": "Reaction composition at 24 hours (%) 3a", "setting": "[5]", "value": "51 ± 3", "unit": "%"},
      {"measurement": "Reaction composition at 24 hours (%) 5a", "setting": "[5]", "value": "3 ± 1", "unit": "%"},
      {"measurement": "Conversion of 2a to 3a (%)", "setting": "IECO fresh CFE 1 mg/mL, catalase 0 mg/mL, 24 h", "value": "38 ± 4", "unit": "%"},
      {"measurement": "Reaction composition at 24 hours (%) 2a", "setting": "[6]", "value": "41 ± 6", "unit": "%"},
      {"measurement": "Reaction composition at 24 hours (%) 3a", "setting": "[6]", "value": "58 ± 6", "unit": "%"},
      {"measurement": "Reaction composition at 24 hours (%) 5a", "setting": "[6]", "value": "1 ± 0.1", "unit": "%"},
      {"measurement": "Conversion of 2a to 3a (%)", "setting": "IECO fresh CFE 1 mg/mL, catalase 2 mg/mL, 24 h", "value": "44 ± 5", "unit": "%"},
      {"measurement": "Reaction composition at 24 hours (%) 2a", "setting": "[7]", "value": "41 ± 3", "unit": "%"},
      {"measurement": "Reaction composition at 24 hours (%) 3a", "setting": "[7]", "value": "58 ± 1", "unit": "%"},
      {"measurement": "Reaction composition at 24 hours (%) 5a", "setting": "[7]", "value": "1 ± 0.1", "unit": "%"},
      {"measurement": "Conversion of 2a to 3a (%)", "setting": "IECO fresh CFE 1 mg/mL, catalase 10 mg/mL, 24 h", "value": "45 ± 3", "unit": "%"},
      {"measurement": "Reaction composition at 24 hours (%) 2a", "setting": "[8]", "value": "25 ± 4", "unit": "%"},
      {"measurement": "Reaction composition at 24 hours (%) 3a", "setting": "[8]", "value": "71 ± 4", "unit": "%"},
      {"measurement": "Reaction composition at 24 hours (%) 5a", "setting": "[8]", "value": "5 ± 1", "unit": "%"},
      {"measurement": "Conversion of 2a to 3a (%)", "setting": "IECO fresh CFE 2 mg/mL, catalase 0 mg/mL, 24 h", "value": "53 ± 3", "unit": "%"},
      {"measurement": "Reaction composition at 24 hours (%) 2a", "setting": "[9]", "value": "27 ± 3", "unit": "%"},
      {"measurement": "Reaction composition at 24 hours (%) 3a", "setting": "[9]", "value": "72 ± 3", "unit": "%"},
      {"measurement": "Reaction composition at 24 hours (%) 5a", "setting": "[9]", "value": "1 ± 0.3", "unit": "%"},
      {"measurement": "Conversion of 2a to 3a (%)", "setting": "IECO fresh CFE 2 mg/mL, catalase 2 mg/mL, 24 h", "value": "58 ± 3", "unit": "%"},
      {"measurement": "Reaction composition at 24 hours (%) 2a", "setting": "[10]", "value": "22 ± 4", "unit": "%"},
      {"measurement": "Reaction composition at 24 hours (%) 3a", "setting": "[10]", "value": "77 ± 4", "unit": "%"},
      {"measurement": "Reaction composition at 24 hours (%) 5a", "setting": "[10]", "value": "1 ± 0.1", "unit": "%"},
      {"measurement": "Conversion of 2a to 3a (%)", "setting": "IECO fresh CFE 2 mg/mL, catalase 10 mg/mL, 24 h", "value": "59±3", "unit": "%"},
      {"measurement": "Reaction composition at 24 hours (%) 2a", "setting": "[11]", "value": "9.1 ± 3", "unit": "%"},
      {"measurement": "Reaction composition at 24 hours (%) 3a", "setting": "[11]", "value": "82 ± 5", "unit": "%"},
      {"measurement": "Reaction composition at 24 hours (%) 5a", "setting": "[11]", "value": "9 ± 4", "unit": "%"},
      {"measurement": "Conversion of 2a to 3a (%)", "setting": "IECO fresh CFE 4 mg/mL, catalase 0 mg/mL, 24 h", "value": "56 ± 10", "unit": "%"},
      {"measurement": "Reaction composition at 24 hours (%) 2a", "setting": "[12]", "value": "11 ± 3", "unit": "%"},
      {"measurement": "Reaction composition at 24 hours (%) 3a", "setting": "[12]", "value": "84 ± 5", "unit": "%"},
      {"measurement": "Reaction composition at 24 hours (%) 5a", "setting": "[12]", "value": "5 ± 4", "unit": "%"},
      {"measurement": "Conversion of 2a to 3a (%)", "setting": "IECO fresh CFE 4 mg/mL, catalase 2 mg/mL, 24 h", "value": "62 ± 10", "unit": "%"},
      {"measurement": "Reaction composition at 24 hours (%) 2a", "setting": "[13]", "value": "13 ± 1", "unit": "%"},
      {"measurement": "Reaction composition at 24 hours (%) 3a", "setting": "[13]", "value": "86 ± 13", "unit": "%"},
      {"measurement": "Reaction composition at 24 hours (%) 5a", "setting": "[13]", "value": "1 ± 0.1", "unit": "%"}
    ]}
  ]
}
